As a reminder, the stoichiometry N is the number of molecules, sites or subunits per partner or assembly.

Where “and” joins values, the source holds several entries; their conditions need not be identical. Identical values can stand only once.

Data set [1] addresses wild-type human retinoschisin (human) (UniProt O15537). Nature of the data set: native gel or EMSA; blue-native PAGE and native blot of purified retinoschisin (H207Q at ~0.1 mg/ml). In general terms: A gel shift assay detects complexes by their altered migration in electrophoresis.
Data set [2] shares this target. Nature of the data set: AUC; sedimentation velocity of the octamer fraction, ~0.1 mg/ml, 10 mM Tris pH 7.4, 150 mM NaCl, 20°C, 45,000 rpm.
Data set [3] has the same target. Nature of the data set: negative-stain EM; 20 µg/ml octamer on carbon coated grids, uranyl acetate, reference-free class averages.
For data set [4] the target is unchanged. Nature of the data set: cryo-EM structure; 0.1 mg/ml of octamer vitrified on C-Flat R2/2 grids; C8 (wild type) or D8 (R141H) symmetry.
For data set [5] the target is unchanged. Nature of the data set: SEC-MALS; octamer fraction; 10 mM Tris pH 7.4, 150 mM NaCl. On the technique in general: In gel filtration, larger molecules generally elute earlier.
Data set [6] deals with the molecule itself. Nature of the data set: native gel or EMSA; blue-native PAGE and native blot of purified retinoschisin (H207Q at ~0.1 mg/ml).
Data set [7] deals with the molecule itself. Nature of the data set: SEC-MALS; octamer fraction; 10 mM Tris pH 7.4, 150 mM NaCl.
Data set [8] concerns the molecule itself. Nature of the data set: negative-stain EM; 20 µg/ml octamer on carbon coated grids, uranyl acetate, reference-free class averages.

In the case of “wild-type human retinoschisin (from UniProt O15537 24-224) (natural protein)”, the stoichiometry N in data set [1] was 8 and 16; in data set [2], 8; in data set [3], 8; in data set [4], 8 and 16; in data set [5] it was 8.

B1: R141H human retinoschisin (natural protein, UniProt O15537 24-224, looked up)
chain: STEDEGEDPWYQKACKCDCQGGPNALWSAGATSLDCIPECPYHKPLGFESGEVTPDQITCSNPEQYVGWYSSWTANKARLNSQGFGCAWLSKFQDSSQWLQIDLKEIKVISGILTQGHCDIDEWMTKYSVQYRTDERLNWIYYKDQTGNNRVFYGNSDRTSTVQNLLRPPIISRFIRLIPLGWHVRIAIRMELLECVSKCA
notes: retinoschisin, human, product of the RS1 gene, with the XLRS-associated mutation R141H; Disease-causing (XLRS) mutation that occurs in patients; Same construct as m1 apart from the mutation; also called R141H retinoschisin; R141H mutant
As for B1, the “stoichiometry N” value in data set [6] amounted to 16; in data set [7], 8.

B2: H207Q human retinoschisin (natural protein, UniProt O15537 24-224, looked up)
chain: STEDEGEDPWYQKACKCDCQGGPNALWSAGATSLDCIPECPYHKPLGFESGEVTPDQITCSNPEQYVGWYSSWTANKARLNSQGFGCAWLSKFQDSSQWLQIDLKEIKVISGILTQGRCDIDEWMTKYSVQYRTDERLNWIYYKDQTGNNRVFYGNSDRTSTVQNLLRPPIISRFIRLIPLGWQVRIAIRMELLECVSKCA
notes: retinoschisin, human, product of the RS1 gene, with the XLRS-associated mutation H207Q; Disease-causing (XLRS) mutation that occurs in patients; Same construct as m1 apart from the mutation; also called H207Q retinoschisin; H207Q mutant
B2: the “stoichiometry N” value is 16 in data set [6] and 8 in data set [8].

These data come from PMC5418834, “Structural analysis of X-linked retinoschisis mutations reveals distinct classes which differentially effect retinoschisin function” (Human Molecular Genetics, 2016).
